The target in the test is FPM13 (Francisella Periplasmic Metalloprotein, 13 kDa), native protein of Francisella novicida (Francisella novicida). The test is described as follows: cryo-EM structure.

In PMC13028475 one finds stoichiometry N data, which are given here for 1 substance.

As usually defined, the stoichiometry N is the number of molecules, sites or subunits per partner or assembly. On to “FPM13 (Francisella Periplasmic Metalloprotein, 13 kDa), native protein of Francisella novicida (natural protein)”, for which the stoichiometry N came to 18.
